In PMC2132842:

Experiments:
Test in all cases: two-hybrid
GAL4/CAS (human) = GAL4/CAS (human) (UniProt P55060)
GAL4/Imp βΔ1/261 (human) = GAL4/Imp βΔ1/261 (human) (UniProt Q14974)
GAL4/LEF-1 (297–399) = GAL4/LEF-1 (297–399) (UniProt Q9UJU2)
Chain of GAL4/LEF-1 (297–399) (Q9UJU2 297-399): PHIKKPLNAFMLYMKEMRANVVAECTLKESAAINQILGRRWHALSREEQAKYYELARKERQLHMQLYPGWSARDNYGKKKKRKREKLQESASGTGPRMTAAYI

Chain of GAL4/CAS (human) (P55060 whole entry, the tested form may be a part): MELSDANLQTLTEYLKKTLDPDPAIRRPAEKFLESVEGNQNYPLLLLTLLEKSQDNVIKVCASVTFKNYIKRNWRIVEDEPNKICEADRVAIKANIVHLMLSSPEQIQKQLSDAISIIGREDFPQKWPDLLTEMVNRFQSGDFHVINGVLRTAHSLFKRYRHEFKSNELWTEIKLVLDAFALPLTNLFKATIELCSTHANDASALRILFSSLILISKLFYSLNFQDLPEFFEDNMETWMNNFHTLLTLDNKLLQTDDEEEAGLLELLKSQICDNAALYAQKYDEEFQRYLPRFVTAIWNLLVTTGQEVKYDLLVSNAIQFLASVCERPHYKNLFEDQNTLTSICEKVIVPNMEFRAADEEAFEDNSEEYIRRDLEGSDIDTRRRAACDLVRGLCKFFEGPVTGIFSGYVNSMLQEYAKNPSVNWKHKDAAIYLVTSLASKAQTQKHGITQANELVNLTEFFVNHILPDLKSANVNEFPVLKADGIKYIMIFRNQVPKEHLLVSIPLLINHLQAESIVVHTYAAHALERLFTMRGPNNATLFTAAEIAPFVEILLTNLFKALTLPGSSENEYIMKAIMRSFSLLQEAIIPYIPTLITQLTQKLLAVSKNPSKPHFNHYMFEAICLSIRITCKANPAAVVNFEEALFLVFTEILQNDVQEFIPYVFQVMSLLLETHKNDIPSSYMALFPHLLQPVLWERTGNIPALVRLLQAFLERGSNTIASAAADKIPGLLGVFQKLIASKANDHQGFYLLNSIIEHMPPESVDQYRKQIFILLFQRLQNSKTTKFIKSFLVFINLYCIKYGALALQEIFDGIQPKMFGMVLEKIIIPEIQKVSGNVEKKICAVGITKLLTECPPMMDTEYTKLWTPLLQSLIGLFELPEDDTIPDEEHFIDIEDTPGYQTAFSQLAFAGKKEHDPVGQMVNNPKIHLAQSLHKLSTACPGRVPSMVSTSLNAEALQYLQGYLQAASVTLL
Chain of GAL4/Imp βΔ1/261 (human) (Q14974 262-876, stated change not applied): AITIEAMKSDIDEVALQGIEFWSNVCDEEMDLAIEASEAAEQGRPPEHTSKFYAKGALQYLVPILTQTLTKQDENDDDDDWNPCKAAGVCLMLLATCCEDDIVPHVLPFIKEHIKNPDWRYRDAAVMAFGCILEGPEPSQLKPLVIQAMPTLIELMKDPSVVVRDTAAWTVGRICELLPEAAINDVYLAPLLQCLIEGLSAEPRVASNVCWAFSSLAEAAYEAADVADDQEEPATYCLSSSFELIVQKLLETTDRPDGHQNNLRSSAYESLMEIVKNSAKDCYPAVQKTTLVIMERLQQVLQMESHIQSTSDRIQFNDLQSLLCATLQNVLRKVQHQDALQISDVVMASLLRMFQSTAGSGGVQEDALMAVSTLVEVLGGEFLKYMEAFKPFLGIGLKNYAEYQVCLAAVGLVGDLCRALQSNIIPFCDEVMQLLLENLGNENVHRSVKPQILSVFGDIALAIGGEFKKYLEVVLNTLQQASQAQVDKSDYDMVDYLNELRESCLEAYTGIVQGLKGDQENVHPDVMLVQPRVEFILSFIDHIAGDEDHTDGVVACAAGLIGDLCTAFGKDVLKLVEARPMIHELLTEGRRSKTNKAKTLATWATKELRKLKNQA

VP16/Imp α2 (from UniProt P52292 1-529) (natural protein)
β-gal activity (GAL4/CAS (human)): 434 mOD/ml
β-gal activity (GAL4/Imp βΔ1/261 (human)): 1200 mOD/ml
β-gal activity (GAL4/LEF-1 (297–399)): 130 mOD/ml
